From patent US20100112601A1

Target: PAC1 receptor expressed in Chinese hamster ovary (CHO) cells (UniProt P41586)
Assay: cell-based or functional assay

Chain of UniProt P41586 (P41586 21-468 limits assumed): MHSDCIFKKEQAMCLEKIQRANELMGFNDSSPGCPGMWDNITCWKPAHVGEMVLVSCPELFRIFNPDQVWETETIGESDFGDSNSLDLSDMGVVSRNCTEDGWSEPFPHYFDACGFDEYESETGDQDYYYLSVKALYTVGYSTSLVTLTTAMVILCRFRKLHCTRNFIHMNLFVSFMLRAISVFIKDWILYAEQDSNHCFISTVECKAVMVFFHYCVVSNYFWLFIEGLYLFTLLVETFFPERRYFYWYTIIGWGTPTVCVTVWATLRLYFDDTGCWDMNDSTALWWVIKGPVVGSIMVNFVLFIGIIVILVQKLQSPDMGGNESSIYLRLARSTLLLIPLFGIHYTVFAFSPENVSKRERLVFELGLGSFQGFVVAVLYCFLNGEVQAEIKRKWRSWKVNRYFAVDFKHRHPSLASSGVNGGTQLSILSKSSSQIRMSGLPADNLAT

- inhibition of PACAP27-stimulated GTPγ-35S binding to membranes of PAC1-expressing CHO cells, IC50: 100 nM
Substance: PACAP(6-38)NH2 (from UniProt P18509 87-119) (peptide)
